{"source": "patent US20240216557A1", "about": "(Memorial Sloan Kettering, published 2024)", "key": {"[1]": {"target": "T1, DLL3 on H82 xenograft tumor cells (UniProt Q9NYJ7 27-618, limits assumed)", "T1 construct": "whole, on cells; H82 is a human SCLC line by general knowledge", "T1 sequence (looked up)": "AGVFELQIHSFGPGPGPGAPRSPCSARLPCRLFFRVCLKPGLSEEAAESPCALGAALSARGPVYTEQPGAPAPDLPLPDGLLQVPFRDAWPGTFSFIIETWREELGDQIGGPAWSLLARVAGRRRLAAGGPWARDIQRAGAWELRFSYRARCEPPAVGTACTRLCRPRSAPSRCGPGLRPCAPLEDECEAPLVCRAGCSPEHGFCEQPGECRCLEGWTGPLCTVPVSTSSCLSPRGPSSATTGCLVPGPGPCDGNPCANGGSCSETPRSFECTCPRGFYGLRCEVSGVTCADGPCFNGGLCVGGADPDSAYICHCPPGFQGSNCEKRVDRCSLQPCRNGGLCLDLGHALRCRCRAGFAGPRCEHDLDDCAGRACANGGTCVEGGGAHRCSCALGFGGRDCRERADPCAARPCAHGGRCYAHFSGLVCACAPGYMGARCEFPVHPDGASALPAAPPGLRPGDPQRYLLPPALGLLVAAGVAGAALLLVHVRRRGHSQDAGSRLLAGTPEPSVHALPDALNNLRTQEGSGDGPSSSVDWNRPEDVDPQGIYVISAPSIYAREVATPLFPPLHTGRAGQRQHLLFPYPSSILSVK", "experiment": "immunoPET imaging of athymic mice bearing right flank subcutaneous H82 xenografts after tail vein injection of the Zr-89 labelled antibody; time point not printed on the sheet", "experimental": "(§1) To ensure adequate binding to DLL3 in vivo, the three antibodies were first bioconjugated to p-SCN-Bn-DFO chelators and then radiolabeled with Zr-89 for injection via tail vein into athymic female mice bearing right flank subcutaneous H82 xenografts (250-300 Ci, 30 μg). ImmunoPET imaging was performed every 24 h until 120 h, when a terminal ex vivo biodistribution study was performed."}, "[2]": {"target": "T1, DLL3 on H82 xenograft tumor cells", "experiment": "immunoPET imaging of athymic mice bearing right flank subcutaneous H82 xenografts after tail vein injection of the Zr-89 labelled antibody; time point not printed on the sheet", "remark": "listed apart in the source", "experimental": "as §1"}, "[3]": {"target": "T1, DLL3 on H82 xenograft tumor cells", "experiment": "immunoPET and ex vivo biodistribution of the Zr-89 labeled antibody in mice with H82 xenografts", "experimental": "as §1"}}}
{"binder": "[89Zr]Zr-DFO-A18 antibody (antibody, V domains shown, p-SCN-Bn-DFO chelator bioconjugated to the antibody (sites not given), radiolabeled with Zr-89, also called A18 (monoclonal IgG4, DFO-conjugated, Zr-89 labeled)) VH: QVTLRESGPALVKSTQTLTLTCTFSGFSLSTSGMCVSWIRQTPGKALEWLALIDWDDNKYYSTSLKTRLIISKDTSKNQVVLTMTNMEPVDTATYYCARIRGYSGSYDAFDIWGQGTMVTVSS VL: DIVMTQSPLSLPVTPGEPASISCRSSQSLLHSNGYNYLDWYLQKPGQSPHILLYLGSNRAPGVPDRFSGSGSGTDFTLKISRVEAEDVGVYYCMQALQTPFTFGPGTKVDIK", "values": [{"measurement": "binding result", "setting": "[1]", "value": "binds"}]}
{"binder": "[89Zr]Zr-DFO-J8 antibody (antibody, V domains shown, p-SCN-Bn-DFO chelator bioconjugated to the antibody (sites not given), radiolabeled with Zr-89, also called J8 (monoclonal IgG4, DFO-conjugated, Zr-89 labeled)) VH: QVHLVQSGAEVKKPGASVKVSCKASGYTFTIYYIHWVRQAPGQGLEWMGIINPSGGSTSYAQKFQGRVTMTRDTSTSTVYMELSSLRSEDTAVYYCSGNDYVDYVTTDYYGMDVWGQGTTVTVSS VL: DIQMTQSPSSLSASVGDRVTITCRASQGISNYLAWFQQKPGKAPKSLIYAASSLQSGVPSKFSGSGSGTDFTLTISSLQPEDFATYYCQQYNSSPYTFGQGTKLEIK", "values": [{"measurement": "binding result", "setting": "[2]", "value": "binds"}]}
{"binder": "E9 monoclonal IgG4 antibody bioconjugated to p-SCN-Bn-DFO and radiolabeled with Zr-89 (antibody, V domains shown, p-SCN-Bn-DFO chelator bioconjugated to the antibody (sites not given), radiolabeled with Zr-89) VH: QVQLVQSGAEVKKPGASVKVSCKASGYTFTSYYMHWVRQAPGQGLEWMGVINSSGGSTSYAQKFQGRVTMTRDTSTSTVYMDLSSLRSEDTAVYYCARGYCTNGVYYDEDFDYWGQGTLVTVSS VL: DIQMTQSPSSLSASVGDRVTITCRASQGISHYLAWFQQKPGKAPTSLIYAASSLQSGVPSKFSGSGSGTDFTLTISSLQPEDFATYYCQQYNSYPLTFGGGTKVEIK", "values": [{"measurement": "binding result", "setting": "[3]", "value": "binds"}]}
